This passage reports kdis and kon results from US12215162B2, “BAFF-R targeted chimeric antigen receptor-modified T-cells and uses thereof” (CITY OF HOPE, priority 2016, dated 2025).

B1: Humanized HC1 + LC2: humanized C90 variant, heavy chain variant 1 with light chain variant 2 (antibody, V domains shown)
VH: QVQLQESGPGLVKPSQTLSLTCTVSGDSITSGYWNWIRQHPGKGLEYIGYISYSGSTYYNPSLKSRVTISRDTSKNQFSLKLSSVTAADTAVYYCASPNYPFYAMDYWGQGTLVTVSS
VL: DIVLTQSPATLSLSPGERATLSCRASESVDNYGISFMNWFQQKPGQAPRLLIYAASNRATGIPARFSGSGSGTDFTLTISSLEPEDFAVYYCQQSKEVPWTFGGGTKVEIKRTV
B2: Humanized HC1 + LC1 (antibody, V domains shown)
VH: QVQLQESGPGLVKPSQTLSLTCTVSGDSITSGYWNWIRQHPGKGLEYIGYISYSGSTYYNPSLKSRVTISRDTSKNQFSLKLSSVTAADTAVYYCASPNYPFYAMDYWGQGTLVTVSS
VL: EIVLTQSPATLSLSPGERATLSCRASESVDNYGISFLNWFQQKPGQAPRLLIYAASNRATGIPARFSGSGSGTDFTLTISSLEPEDFAVYYCQQSKEVPWTFGGGTKVEIKRTV
B3: Humanized HC3 + LC2: humanized C90 variant, heavy chain variant 3 with light chain variant 2 (antibody, V domains shown)
VH: EVQLQESGPGLVKPSETLSLTCSVSGDSITSGYWNWIRQPPGKGLEYIGYISYSGSTYYNPSLKSRVTISRDTSKNQYSLRLSSVTAADTALYYCASPNYPFYAMDYWGQGTRVTVSS
VL: DIVLTQSPATLSLSPGERATLSCRASESVDNYGISFMNWFQQKPGQAPRLLIYAASNRATGIPARFSGSGSGTDFTLTISSLEPEDFAVYYCQQSKEVPWTFGGGTKVEIKRTV
B4: Humanized HC3 + LC1 (antibody, V domains shown)
VH: EVQLQESGPGLVKPSETLSLTCSVSGDSITSGYWNWIRQPPGKGLEYIGYISYSGSTYYNPSLKSRVTISRDTSKNQYSLRLSSVTAADTALYYCASPNYPFYAMDYWGQGTRVTVSS
VL: EIVLTQSPATLSLSPGERATLSCRASESVDNYGISFLNWFQQKPGQAPRLLIYAASNRATGIPARFSGSGSGTDFTLTISSLEPEDFAVYYCQQSKEVPWTFGGGTKVEIKRTV
B5: Humanized HC3 + LC3: humanized C90 variant, heavy chain variant 3 with light chain variant 3 (antibody, V domains shown)
VH: EVQLQESGPGLVKPSETLSLTCSVSGDSITSGYWNWIRQPPGKGLEYIGYISYSGSTYYNPSLKSRVTISRDTSKNQYSLRLSSVTAADTALYYCASPNYPFYAMDYWGQGTRVTVSS
VL: DIVMTQSPSSLSASVGDRVTITCRASESVDNYGISFMNWFQQKPGKAPKLLIYAASNLGSGVPSRFSGSGSGTDFTLTISSLQPEDFATYYCQQSKEVPWTFGQGTKVEIKRTV
B6: Humanized HC2 + LC1 (antibody, V domains shown)
VH: EVQLQESGPGLVKPSQTLSLTCTVSGDSITSGYWNWIRQHPGKGLEYIGYISYSGSTYYNPSLKSRVTISRDTSKNQYSLKLSSVTAADTAVYYCASPNYPFYAMDYWGQGTLVTVSS
VL: EIVLTQSPATLSLSPGERATLSCRASESVDNYGISFLNWFQQKPGQAPRLLIYAASNRATGIPARFSGSGSGTDFTLTISSLEPEDFAVYYCQQSKEVPWTFGGGTKVEIKRTV
B7: Humanized HC1 + LC3: humanized C90 variant, heavy chain variant 1 with light chain variant 3 (antibody, V domains shown)
VH: QVQLQESGPGLVKPSQTLSLTCTVSGDSITSGYWNWIRQHPGKGLEYIGYISYSGSTYYNPSLKSRVTISRDTSKNQFSLKLSSVTAADTAVYYCASPNYPFYAMDYWGQGTLVTVSS
VL: DIVMTQSPSSLSASVGDRVTITCRASESVDNYGISFMNWFQQKPGKAPKLLIYAASNLGSGVPSRFSGSGSGTDFTLTISSLQPEDFATYYCQQSKEVPWTFGQGTKVEIKRTV

In the test the target is T1, recombinant extracellular domain of human BAFF-R (Homo sapiens, UniProt Q96RJ3).
T1 construct: The antigen was commercial, recombinant extracellular domain of human BAFF-R; purchased
The experiment in a line: Biacore analysis of binding affinity of humanized BAFF-R antibody variants. An excerpt: The chimeric antibody, clone 90, was humanized while retaining its binding specificity and cytotoxic effects. Through computational analysis of the CDRs and predicted structure, three variants of the heavy and three variants of the light chain were produced with varying degrees of likeness to human antibodies. A total of nine combinational variants was constructed from the humanized heavy and light chains.
The chimeric anti-BAFF-R antibody C90 was humanized with several variants. The humanization process took into consideration and analysis of the variable region and specifically the CDRs of the chimeric antibody. From there, three variants for each heavy and light chain was developed with varying degrees of human-likeness ranging from 1 the most human to 3 the most conservative to the chimeric. The variants were combined to produce 9 variants. Biacore analysis was performed on each variant as well as the chimeric parental C90 to determine their equilibrium dissociation constant KD. The antigen was commercial, recombinant extracellular domain of human BAFF-R.
Turning to B1, the kdis amounted to 0.0023 s⁻¹ and the kon is 620000 M⁻¹ s⁻¹.
On to B2, for which the kdis is 0.0024 s⁻¹ and the kon is 610000 M⁻¹ s⁻¹.
For B3 the same measures were 0.0037 s⁻¹ and 1.2e+06 M⁻¹ s⁻¹.
The matching figures for B4: 0.0031 s⁻¹ and 820000 M⁻¹ s⁻¹.
Take B5: the kdis is 0.0023 s⁻¹ and the kon turned out to be 680000 M⁻¹ s⁻¹.
The matching figures for B6: 0.002 s⁻¹ and 770000 M⁻¹ s⁻¹.
In the case of B7, the kdis is 0.0021 s⁻¹ and the kon amounted to 410000 M⁻¹ s⁻¹.
